B1: Human his-tagged NKG2D/CD314 (Acro Biosystems, NKD-H5245) (receptor, UniProt P26718 78-216, looked up)
chain: FLNSLFNQEVQIPLTESYCGPCPKNWICYKNNCYQFFDESKNWYESQASCMSQNASLLKVYSKEDQDLLKLVKSYHWMGLVHIPTNGSWQWEDGSILSPNLLTIIEMQKGDCALYASSFKGYIENCSTPNTYICMQRTV
notes: Bought recombinant protein with a His tag; also called Human NKG2D-His protein; NKG2D-His

Columns and labels:
CYTB29 [1] = biological target: T1, CYTB29; experiment: SPR avidity format, antigen immobilised on CM5 chip, test molecule injected as analyte
T1 construct: Comparator, Format G: three chains, monovalent for NKG2D (H5/L5) and IL-15 receptor beta; wild-type IL-15
Text: (§1) In order explore avidity binding effects (rather than affinity), a different assay orientation was employed. Specifically, the recombinant target human antigens (NKG2D-His or IL-15 receptor beta-His antigens, see Example 5) were immobilized on CM5 Series S sensor chips (Cytiva, catalogue number 29149603). […] Irrelevant mAbs were employed to determine and subtract background. As previously (Example 5), standard regeneration solutions and buffers were employed. To determine and compare avidity effects, test molecules were the injected in stepwise serial dilutions and sensogram responses generated.

CYTB29 [2] = biological target: T1, CYTB29; experiment: SPR (Biacore), molecule captured on anti-human IgG Fc chip, antigen as analyte, 1:1 Langmuir fit
Protocol: (§2) In brief, the test molecules were first immobilized on a goat anti-human IgG (Fc specific) antibody plated on a Biacore CM5 Series S sensor chip (CFJB1172, Cytiva Cat No. 29149603) by injection at 5 nM at flow rate 30 ul/min. […] The quality of the fits was assessed by visual inspection.

CYTB04 = biological target: T2, CYTB04; experiment: as above
T2 construct: Immunocytokine, Format A: anti-NKG2D IgG1 (H5/L5) with sushi-IL-15 at the C-terminus of each heavy chain
Protocol: as §2

CYTB30 = biological target: T3, CYTB30; experiment: SPR avidity format, antigen immobilised on CM5 chip, test molecule injected as analyte; avidity format of Table 6 (Example 6); not the capture format of Table 5
T3 construct: Comparator, Format G: three chains, monovalent for both targets; also called CYB30
Text: as §1

[3] = biological target: B1; experiment: SPR (Biacore), molecule captured on anti-human IgG Fc chip, antigen as analyte, 1:1 Langmuir fit
Protocol: as §2

Kd (CYTB29 [1]) | Kd (CYTB29 [2]) | Kd (CYTB04) | Kd (CYTB30) | Kd [3] | Binder
6.4 nM | 3.52 nM | 6 nM |  |  | Human IL-15R beta/CD122 Protein, His Tag (Acro Biosystems CD2-H5221) (receptor, UniProt P14784 27-239, looked up, Bought recombinant protein with a His tag; also called Human IL-15Rβ protein; IL-15 receptor beta-His) AVNGTSQFTCFYNSRANISCVWSQDGALQDTSCQVHAWPDRRRWNQTCELLPVSQASWACNLILGAPDSQKLTTVDIVTLRVLCREGVRWRVMAIQDFKPFENLRLMAPISLQVVHVETHRCNISWEISQASHYFERHLEFEARTLSPGHTWEEAPLLTLKQKQEWICLETLTPDTQYEFQVRVKPLQGEFTTWSPWSQPLAFRTKPAALGKD
4.8 nM | 1.92 nM | 1.25 nM | 3830 nM |  | B1
 |  |  |  | 1.65 nM | CYTB21 (antibody, human IgG1, kappa, V domains shown, Control, Format E: anti-NKG2D IgG1 (H6/L6) without IL-15 components; also called CYB21; anti-NKG2D IgG1) VH: EVQLVQSGAEVKEPGESLKISCKNSGYSFTNYWVGWVRQMPGKGLEWMGIIYPGDSDTRYSPSFQGQVTISADKSINTAYLQWSSLKASDTAMYYCGRLTMFRGIIIGYFDYWGQGTLVTVSS VL: EIVLTQSPATLSLSPGERATLSCRASQSVSSYLAWYQQKPGQAPRLLIYDASNRATGIPARFSGSGSGTDFTLTISSLEPEDFAVYYCQQRSNWPWTFGQGTKVEIKR

— patent US20260232829A1 (CYTOSPIRE THERAPEUTICS, published 2026)
